In PMC3355305, “Localized Dimerization and Nucleoid Binding Drive Gradient Formation by the Bacterial Cell Division Inhibitor MipZ” (Molecular Cell, 2012):

Tested on: double-stranded oligonucleotide (ran2)
Assay: SPR analysis of the interaction between MipZ and DNA
Type: binding
Experimental: Figure S5. Surface plasmon resonance (SPR) analysis of the interaction betw een MipZ and DNA, Related to Figure 4.
(A) Effect of Mg2+ on the DNA-binding activity of MipZ. A double-stranded oligonucleotide (ran2, 700 RU) was immobilized on an SPR sensor chip and probed with MipZ (1 µM). The binding reactions were performed in buffer BC containing the indicated nucleotide (2 mM) and no (ATP + Mg2+) or 10 mM (no nucleotide, ADP, ATP) EDTA, respectively.
(B) DNA-binding specificity of MipZ. A double-stranded oligonucleotide (ran2, 500 RU) was immobilized on an SPR sensor chip and allowed to react with MipZ protein (1 µM) that had been preincubated with 2 mM ATP and a double-stranded oligonucleotide (ran2, 6 µM) (dsDNA), a single-stranded oligonucleotide (top strand of ran2, 6 µM) (ssDNA), an oligoribo-nucleotide (with a sequence analogous to the top strand of ran2, 6 µM) (RNA) or polyphosphate (25 µg/ml) (PP), respectively. A reaction performed in the absence of any competitor served as a control. […]
experimental conditions used (data not shown). The dissociation rate constant determined for the reaction without ParB was […]
obtained from crystals flash frozen in a solution of 95% 2 mM, sa mp le s were taken and analyzed for the amount ethanol/50 mM Tris (pH 8.5), and collected at ID23-2, of [α-32P]-GDP produced in the reaction as described ESRF (Grenoble, France). […]

B1: MipZ: P loop ATPase and cell division inhibitor of Caulobacter crescentus; hexahistidine-tagged in vitro, YFP fusion in FRAP (protein)
chain: MAETRVIVVGNEKGGAGKSTIAVHLVTALLYGGAKVAVIDLDLRQRTSARFFENRRAWLDNKKIELPEPLALNLSDNDVALAERPEEEQVAGFEAAFARAMAECDFILIDTPGGDSAITRMAHGRADLVVTPMNDSFVDFDMLGTVDPVTLELTKPSLYSLTVWEGRKQRALSGQRQAMDWVVLRNRLATTEARNRKRLEDRLNALAKRVGFRIGPGLRDRVIYRELFPFGLTIADLSPQVRPVPVSLQHLAARQELRALMHSLGLSAYSGETMLAAQ
modifications: left off: His6, end not stated, state not stated
notes: hexahistidine-tagged in vitro, YFP fusion in FRAP
rate constant for the dissociation of MipZ from DNA (koff) (MipZ 0.5 µM, 2 mM ATP, without ParB): 0.025 s⁻¹ | half-time t1/2 of dissociation of MipZ from DNA (in vitro): 28 s
